How the values were obtained:
[1] = test system: IRE1-NLD; experiment: MST, COX-2 titrated to RED-labeled IRE1-NLD; type: binding; settings: red labelled IRE1-NLD, Suppl. Fig. S9
Experimental: MST was carried out using a Monolith NT.115 instrument (NanoTemper). To evaluate COX-2 binding to IRE1-NLD, an increasing concentration of purified COX-2 protein (0–10 µM) was incubated with RED-labeled purified IRE1-NLD protein (NanoTemper; as per manufacturer’s protocol). The reverse was also performed, with RED-labeled purified COX-2 incubated with an increasing concentration of purified IRE1-NLD. Positive (cyclophilin A) and negative controls (carbonic anhydrase) were included. […] Positive (cyclophilin A) and negative controls (carbonic anhydrase) were included. […] Experiments were done in triplicate and data evaluation was performed using the Monolith software (NanoTemper).

[2] = test system: COX-2 peroxidase; settings: COX-2 H374Y mutant; cited from earlier work
From the text: Thus, we generated a cell line overexpressing His-tagged COX-2 (HEK293 COX-2 OE) as well as a cell line overexpressing the His-tagged COX-2 H374Y mutant (Fig. 6A), which has a 300-fold reduction in peroxidase activity.

binding to IRE1-NLD (MST), wild-type and H374Y [1]: bound to IRE1-NLD
B1: COX-2 H374Y: COX-2 H374Y mutant protein (protein)
chain: ANPCCSHPCQNRGVCMSVGFDQYKCDCTRTGFYGENCSTPEFLTRIKLFLKPTPNTVHYILTHFKGFWNVVNNIPFLRNAIMSYVLTSRSHLIDSPPTYNADYGYKSWEAFSNLSYYTRALPPVPDDCPTPLGVKGKKQLPDSNEIVEKLLLRRKFIPDPQGSNMMFAFFAQHFTHQFFKTDHKRGPAFTNGLGHGVDLNHIYGETLARQRKLRLFKDGKMKYQIIDGEMYPPTVKDTQAEMIYPPQVPEHLRFAVGQEVFGLVPGLMMYATIWLREHNRVCDVLKQEHPEWGDEQLFQTSRLILIGETIKIVIEDYVQHLSGYHFKLKFDPELLFNKQFQYQNRIAAEFNTLYHWYPLLPDTFQIHDQKYNYQQFIYNNSILLEHGITQFVESFTRQIAGRVAGGRNVPPAVQKVSQASIDQSRQMKYQSFNEYRKRFMLKPYESFEELTGEKEMSAELEALYGDIDAVELYPALLVEKPRPDAIFGETMVEVGAPFSLKGLMGNVICSPAYWKPSTFGGEVGFQIINTASIQSLICNNVKGCPFTSFSVPDPELIKTVTINASSSRSGLDDINPTVLLKERSTEL
modifications: left off: His6, end not stated, state not stated
notes: COX-2 H374Y mutant protein
fold reduction in peroxidase activity [2]: 300 fold
